# Data as given in PMC6539845 (International Journal of Molecular Sciences, 2019).
# Values joined by “and” are separate entries in the source; they are usually repeats but may differ in a detail not shown here. Equal entries are not always repeated.
# B1: human proteasome α5 subunit (natural protein, UniProt P28066 1-241, looked up)
# chain: MFLTRSEYDRGVNTFSPEGRLFQVEYAIEAIKLGSTAIGIQTSEGVCLAVEKRITSPLMEPSSIEKIVEIDAHIGCAMSGLIADAKTLIDKARVETQNHWFTYNETMTVESVTQAVSNLALQFGEEDADPGAMSRPFGVALLFGGVDEKGPQLFHMDPSGTFVQCDARAIGSASEGAQSSLQEVYHKSMTLKEAIKSSLIILKQVMEEKLNATNIELATVQPGQNFHMFTKEELEEVIKDI
# notes: proteasome subunit α5 (PSMA5), human, residues 1-241; the vector holds a TEV protease cleavage site preceding the gene; also called PSMA5
# B2: human proteasome α4 subunit (natural protein, UniProt O14818 1-248, looked up)
# chain: MSYDRAITVFSPDGHLFQVEYAQEAVKKGSTAVGVRGRDIVVLGVEKKSVAKLQDERTVRKICALDDNVCMAFAGLTADARIVINRARVECQSHRLTVEDPVTVEYITRYIASLKQRYTQSNGRRPFGISALIVGFDFDGTPRLYQTDPSGTYHAWKANAIGRGAKSVREFLEKNYTDEAIETDDLTIKLVIKALLEVVQSGGKNIELAVMRRDQSLKILNPEEIEKYVAEIEKEKEENEKKKQKKAS
# notes: proteasome subunit α4 (PSMA7), human, residues 1-248; subcloned into the NdeI and SalI sites of pET28b; also called PSMA7
# B3: human proteasome α3 subunit (natural protein, UniProt P25789 1-261, looked up)
# chain: MSRRYDSRTTIFSPEGRLYQVEYAMEAIGHAGTCLGILANDGVLLAAERRNIHKLLDEVFFSEKIYKLNEDMACSVAGITSDANVLTNELRLIAQRYLLQYQEPIPCEQLVTALCDIKQAYTQFGGKRPFGVSLLYIGWDKHYGFQLYQSDPSGNYGGWKATCIGNNSAAAVSMLKQDYKEGEMTLKSALALAIKVLNKTMDVSKLSAEKVEIATLTRENGKTVIRVLKQKEVEQLIKKHEEEEAKAEREKKEKEQKEKDK
# notes: proteasome subunit α3 (PSMA4), human, residues 1-261; the vector holds a TEV protease cleavage site preceding the gene; also called PSMA4
# B4: human proteasome α1 subunit (natural protein)
# chain: not shown
# notes: proteasome subunit α1 (PSMA6), human, residues 1-246; subcloned into the NdeI and SalI sites of pET28b; also called PSMA6
# B5: human proteasome α2 subunit (natural protein, UniProt P25787 1-234, looked up)
# chain: MAERGYSFSLTTFSPSGKLVQIEYALAAVAGGAPSVGIKAANGVVLATEKKQKSILYDERSVHKVEPITKHIGLVYSGMGPDYRVLVHRARKLAQQYYLVYQEPIPTAQLVQRVASVMQEYTQSGGVRPFGVSLLICGWNEGRPYLFQSDPSGAYFAWKATAMGKNYVNGKTFLEKRYNEDLELEDAIHTAILTLKESFEGQMTEDNIEVGICNEAGFRRLTPTEVKDYLAAIA
# notes: proteasome subunit α2 (PSMA2), human, residues 1-234; subcloned into the NdeI and XhoI sites of pRSFDuet-1; no tag is named; also called PSMA2
# Key:
# [1] = target: the molecule itself; assay: native MS; single proteins, 5–20 μM monomers, 150 mM ammonium acetate (pH 6.8–8.0), nanoflow electrospray
# [2] = target: T1, human proteasome α7 subunit, wild type (human, UniProt P25788 1-255); assay: native MS; α4 or α6 (4 μM monomers) mixed with α7 (2 μM tetradecamer), 20 °C, 1 h, 150 mM ammonium acetate; conditions: both partners purified
# T1 construct: proteasome subunit α7 (PSMA3), human, residues 1-255; wild-type construct in pRSFDuet-1; also called PSMA3; α7 homotetradecamer; copies: 14
# T1 sequence (P25788 whole entry, the tested form may be a part): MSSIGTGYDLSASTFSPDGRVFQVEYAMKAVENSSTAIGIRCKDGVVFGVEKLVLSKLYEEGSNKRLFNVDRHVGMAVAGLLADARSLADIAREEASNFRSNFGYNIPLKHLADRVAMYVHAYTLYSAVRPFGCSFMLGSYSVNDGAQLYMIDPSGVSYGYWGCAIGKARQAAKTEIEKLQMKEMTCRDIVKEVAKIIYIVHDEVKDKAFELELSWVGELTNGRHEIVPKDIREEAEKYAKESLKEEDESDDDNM
Binder,stoichiometry N [1],stoichiometry N [2]
B1,2,–
B2,2,7 α7 subunits per α4 and 14 α7 subunits per α4
B3,2,–
B4,2,–
B5,2,–
